Assay results published in article PMC8301185, “Secondary Structure of the Novel Myosin Binding Domain WYR and Implications within Myosin Structure” (Biology, 2021).
Ends that are not written are not given here.

Columns and labels:
[1] = target: T1, LMM (V1346 through I1941 of D. melanogaster myosin heavy-chain) (Drosophila melanogaster, UniProt P05661); test: Co-sedimentation assay of LMM titrated by WYR; format: binding
T1 construct: encompassing V1346 through I1941 of D. melanogaster myosin heavy-chain; made in house; host or cells: E. coli BL-21(DE3) pLysS
Description: A 68.9 kDa 602 aa peptide encompassing V1346 through I1941 of D. melanogaster myosin heavy-chain (herein LMM) with an N-terminal 6× His-tag cloned into pET-23a vector was transformed into E. coli BL-21(DE3) pLysS cells. Cells were grown in Luria broth (LB) containing 100 µg/mL ampicillin and 50 µg/mL chloramphenicol. Upon reaching A600 of 0.8–1.0, culture was chilled on ice for 15 min, and expression was induced by adding IPTG to 0.75 mM and incubating for 16 h at 25 °C with gentle rocking. Induced cells were collected by centrifugation at 10,000 rcf for 10 min and stored as pellets at −40 °C. Pellets were resuspended in lysis buffer described by Korkmaz et al., and lysed by sonication. […] The relative purity of each fraction was assessed via SDS-PAGE stained with Krypton (Thermo Scientific, Rockford, IL, USA). […] Protein concentration was determined via absorbance at 280 nm using an extinction coefficient of 18450 cm^−1 M^−1. […]
Synthetic, 6.6 kDa 52 aa WYR peptide encompassing H84-T136 of D. melanogaster flightin was sourced from Genscript (Piscataway, NJ, USA). Peptide was suspended in ddH2O, filtered through a 0.22 µm Millipore filter, and concentration determined by micro BCA assay and absorbance at 280 nm using an extinction coefficient of 21,430 cm^−1 M^−1. […]

[2] = target: T2, Myosin heavy chain, muscle (LMM) 1346-1941 (Drosophila melanogaster, UniProt P05661); test: co-sedimentation
T2 chain: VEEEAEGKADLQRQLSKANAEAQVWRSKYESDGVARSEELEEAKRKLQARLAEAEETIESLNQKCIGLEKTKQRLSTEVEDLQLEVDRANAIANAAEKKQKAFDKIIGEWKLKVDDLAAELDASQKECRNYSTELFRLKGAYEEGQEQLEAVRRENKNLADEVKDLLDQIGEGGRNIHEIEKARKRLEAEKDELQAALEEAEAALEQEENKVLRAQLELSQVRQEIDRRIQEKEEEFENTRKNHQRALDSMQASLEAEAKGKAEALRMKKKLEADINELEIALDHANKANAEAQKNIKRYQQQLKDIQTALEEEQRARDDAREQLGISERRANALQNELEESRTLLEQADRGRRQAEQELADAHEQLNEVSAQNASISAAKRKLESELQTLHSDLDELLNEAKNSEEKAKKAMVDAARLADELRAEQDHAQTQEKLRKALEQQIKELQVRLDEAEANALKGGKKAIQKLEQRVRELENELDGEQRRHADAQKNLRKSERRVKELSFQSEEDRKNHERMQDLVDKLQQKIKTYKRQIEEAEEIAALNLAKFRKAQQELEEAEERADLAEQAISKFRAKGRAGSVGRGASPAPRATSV

[3] = Circular dichroism of LMM alone, secondary structure estimation; format: physicochemical; conditions: for CD maximum wavelength: MRE profile, Figure S9; for helicity, range over methods: without CONTIN, CDSSTR, BeStSel; for α helical content, range over methods: all methods
Description: A 68.9 kDa 602 aa peptide encompassing V1346 through I1941 of D. melanogaster myosin heavy-chain (herein LMM) with an N-terminal 6× His-tag cloned into pET-23a vector was transformed into E. coli BL-21(DE3) pLysS cells. Cells were grown in Luria broth (LB) containing 100 µg/mL ampicillin and 50 µg/mL chloramphenicol. Upon reaching A600 of 0.8–1.0, culture was chilled on ice for 15 min, and expression was induced by adding IPTG to 0.75 mM and incubating for 16 h at 25 °C with gentle rocking. Induced cells were collected by centrifugation at 10,000 rcf for 10 min and stored as pellets at −40 °C. Pellets were resuspended in lysis buffer described by Korkmaz et al., and lysed by sonication. To purify the MHC peptide, the lysate was rocked at 4 °C with Ni-NTA-agarose resin for one hour in a 20 mL column before being rinsed with 8 column volumes of 20 mM imidazole wash-buffer. The resin was then rinsed in two 15 mL portions of each 40- and 80 mM imidazole wash buffer, with 10 min of rocking in each 15 mL portion. The peptide was eluted in six 1 mL fractions and one 12 mL fraction for a total volume of 18 mL 200 mM imidazole elution buffer. All wash and elution buffers are variants of ‘Buffer A’ described by Korkmaz et al. with the following modifications: imidazole concentration was adjusted to 20 mM, 40 mM or 80 mM for wash buffer and to 200 mM for elution buffer. The relative purity of each fraction was assessed via SDS-PAGE stained with Krypton (Thermo Scientific, Rockford, IL, USA). Selected fractions were further purified and concentrated with an Amicon Ultra-15 50k centrifugal filter, and buffer exchanged into 400 mM NaF, 20 mM sodium phosphate pH 7.0, 1 mM TCEP for storage. Protein concentration was determined via absorbance at 280 nm using an extinction coefficient of 18450 cm^−1 M^−1. Densitometry using ImageJ was carried out on Krypton stained gels to ascertain purity of the sample [23] and the peptide identity verified by mass spectrometry.
WYR and LMM samples ranging from 0.5 to 10 µM were prepared in 700 µL of 215 mM NaF, 20 mM Sodium Phosphate, pH 7, 1 mM TCEP. LMM preparations were centrifuged at 10,000 rcf for 10 min and filtered through a 0.22 µm Millipore filter. Blank samples used an equivalent volume of filtrate from the final flow through from LMM concentrators as used in the experimental samples to account for any possible trace contaminant. These blanks were checked against equivalent freshly prepared buffer. A rectangular STARNA quartz cuvette with a pathlength of 0.2 cm was used throughout. Between experiment days the cuvette received a full wash with the provided STARNA detergent in accordance to STARNA protocol. Between samples, 1× 60% EtOH and 3× dH2O rinses were carried out and residual fluid was evaporated with pressurized nitrogen.
Samples were measured at 25 °C using a Jasco J-1700 spectropolarimeter at a scanning-speed of 20 nm/min with a digital integration time (DIT) of 8 s and bandwidth of 0.5–1 nm over six accumulations, minimally from 260–190 nm on continuous scan mode. A minimum n = 6 was used for measurements of the experimental combination of LMM and WYR and an n = 10 for WYR alone in 215 mM NaF, 20 mM Sodium Phosphate, pH 7, 1 mM TCEP. Wavelengths at maxima and minima, as well as θ222/208 and θ192/208 ellipticity ratios were recorded for all spectra. […] While other analysis programs exist, BeStSel is best suited for non-helical proteins of more unusual structure through both its diverse eight element modelling and inclusion of a basis dataset that incorporates proteins with rare secondary structures. BeStSel was most appropriate given the non-helical profile of WYR along with its high aromatic content and presence of proline.
Independent spectra for each peptide were evaluated after subtracting baseline spectra. […]

T1 sequence (P05661 1-1936 isoform P05661-24): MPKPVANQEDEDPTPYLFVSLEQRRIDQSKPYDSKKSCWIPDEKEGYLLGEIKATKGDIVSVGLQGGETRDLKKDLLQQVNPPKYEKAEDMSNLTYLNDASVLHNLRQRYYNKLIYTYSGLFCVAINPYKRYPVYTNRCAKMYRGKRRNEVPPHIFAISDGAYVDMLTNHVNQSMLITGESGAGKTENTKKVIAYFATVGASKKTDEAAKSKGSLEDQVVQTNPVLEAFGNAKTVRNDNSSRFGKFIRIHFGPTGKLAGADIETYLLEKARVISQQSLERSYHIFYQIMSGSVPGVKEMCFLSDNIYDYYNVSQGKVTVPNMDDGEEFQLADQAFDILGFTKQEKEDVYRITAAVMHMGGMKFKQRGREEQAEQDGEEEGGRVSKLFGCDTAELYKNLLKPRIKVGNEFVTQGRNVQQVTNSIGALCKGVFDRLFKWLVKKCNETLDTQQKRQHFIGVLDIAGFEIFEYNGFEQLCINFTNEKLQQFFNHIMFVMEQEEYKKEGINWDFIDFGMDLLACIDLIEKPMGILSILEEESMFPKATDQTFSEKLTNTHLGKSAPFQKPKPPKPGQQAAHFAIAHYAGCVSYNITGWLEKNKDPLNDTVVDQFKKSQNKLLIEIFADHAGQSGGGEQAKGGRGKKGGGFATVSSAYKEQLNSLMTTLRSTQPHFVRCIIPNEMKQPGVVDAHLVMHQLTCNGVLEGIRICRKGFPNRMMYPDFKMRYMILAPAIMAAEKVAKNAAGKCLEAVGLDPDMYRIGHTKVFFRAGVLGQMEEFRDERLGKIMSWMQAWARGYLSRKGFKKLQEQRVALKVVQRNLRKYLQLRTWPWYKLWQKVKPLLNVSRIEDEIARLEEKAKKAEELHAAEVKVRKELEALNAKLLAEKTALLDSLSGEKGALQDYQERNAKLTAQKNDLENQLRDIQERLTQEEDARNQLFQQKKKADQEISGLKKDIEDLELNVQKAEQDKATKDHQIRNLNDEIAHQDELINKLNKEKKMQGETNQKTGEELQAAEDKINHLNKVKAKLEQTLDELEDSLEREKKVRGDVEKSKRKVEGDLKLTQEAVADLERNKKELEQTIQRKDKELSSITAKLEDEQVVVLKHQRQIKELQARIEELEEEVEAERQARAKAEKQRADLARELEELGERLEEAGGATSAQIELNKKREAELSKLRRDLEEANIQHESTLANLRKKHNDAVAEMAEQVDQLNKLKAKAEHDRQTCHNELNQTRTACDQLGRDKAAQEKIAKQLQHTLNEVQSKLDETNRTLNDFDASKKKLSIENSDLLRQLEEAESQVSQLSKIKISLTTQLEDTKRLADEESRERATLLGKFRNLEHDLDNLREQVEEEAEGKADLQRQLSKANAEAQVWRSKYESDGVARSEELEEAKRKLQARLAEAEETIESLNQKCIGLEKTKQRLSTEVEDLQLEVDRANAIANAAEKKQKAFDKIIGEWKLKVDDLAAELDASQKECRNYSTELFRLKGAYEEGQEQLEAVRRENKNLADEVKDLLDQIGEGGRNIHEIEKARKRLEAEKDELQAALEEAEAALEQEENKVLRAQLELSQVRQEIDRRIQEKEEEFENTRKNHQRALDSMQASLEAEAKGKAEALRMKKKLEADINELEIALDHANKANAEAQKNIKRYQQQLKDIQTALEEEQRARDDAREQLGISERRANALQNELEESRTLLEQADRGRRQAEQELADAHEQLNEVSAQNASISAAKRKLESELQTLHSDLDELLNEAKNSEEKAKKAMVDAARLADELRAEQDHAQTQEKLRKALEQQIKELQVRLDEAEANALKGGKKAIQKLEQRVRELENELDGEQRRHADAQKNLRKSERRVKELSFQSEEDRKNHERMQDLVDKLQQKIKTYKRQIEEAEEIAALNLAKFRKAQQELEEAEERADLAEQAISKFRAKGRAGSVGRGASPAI

HWVRPKFLQYKYMYNYRTNYYDDVIDYIDKKQTGVAREIPRPQTWAERVLRT [WYR]
Kd ([1]; Kd 95% CI, 95% confidence interval of Kd, co-sedimentation): 1550 to 2760 nM | LMM sedimenting in the presence of WYR ([1]; upon centrifugation at the WYR/LMM ratio used in CD experiments): ~ 30%

B1: Flightin (WYR domain) 84-136 (protein)
chain: HWVRPKFLQYKYMYNYRTNYYDDVIDYIDKKQTGVAREIPRPQTWAERVLRTR
Kd [2]: 2060 nM

B2: LMM: 68.9 kDa 602 aa peptide encompassing V1346 through I1941 of D. melanogaster myosin heavy-chain with an N-terminal 6× His-tag (protein, UniProt P05661 1346-1941, looked up, fragment)
chain: VEEEAEGKADLQRQLSKANAEAQVWRSKYESDGVARSEELEEAKRKLQARLAEAEETIESLNQKCIGLEKTKQRLSTEVEDLQLEVDRANAIANAAEKKQKAFDKIIGEWKLKVDDLAAELDASQKECRNYSTELFRLKGAYEEGQEQLEAVRRENKNLADEVKDLLDQIGEGGRNIHEIEKARKRLEAEKDELQAALEEAEAALEQEENKVLRAQLELSQVRQEIDRRIQEKEEEFENTRKNHQRALDSMQASLEAEAKGKAEALRMKKKLEADINELEIALDHANKANAEAQKNIKRYQQQLKDIQTALEEEQRARDDAREQLGISERRANALQNELEESRTLLEQADRGRRQAEQELADAHEQLNEVSAQNASISAAKRKLESELQTLHSDLDELLNEAKNSEEKAKKAMVDAARLADELRAEQDHAQTQEKLRKALEQQIKELQVRLDEAEANALKGGKKAIQKLEQRVRELENELDGEQRRHADAQKNLRKSERRVKELSFQSEEDRKNHERMQDLVDKLQQKIKTYKRQIEEAEEIAALNLAKFRKAQQELEEAEERADLAEQAISKFRAKGRAGSVGRGASPAPRATSV
modifications: N-terminal 6xHis tag
notes: 68.9 kDa 602 aa peptide encompassing V1346 through I1941 of D. melanogaster myosin heavy-chain with an N-terminal 6× His-tag
fractional alpha helical composition ([3]; 208 nm magnitude, [LMM] 2 µM): 28.5% | fractional alpha helical composition ([3]; 208 nm magnitude, [LMM] 10 µM): 28.7% | fractional alpha helical composition ([3]; 222 nm magnitude, [LMM] 2 µM): 18.1% | fractional alpha helical composition ([3]; 222 nm magnitude, [LMM] 10 µM): 19.1% | fractional alpha helical composition ([3]; 230-240 nm slope, [LMM] 2 µM): 14.2% | fractional alpha helical composition ([3]; 230-240 nm slope, [LMM] 10 µM): 15.3% | fractional alpha helical composition ([3]; BeStSel (190-260), [LMM] 2 µM): 11.3% | fractional alpha helical composition ([3]; BeStSel (190-260), [LMM] 10 µM): 15.6% | fractional alpha helical composition ([3]; CDSSTR (SMP180), [LMM] 2 µM): 8% | fractional alpha helical composition ([3]; CDSSTR (SMP180), [LMM] 10 µM): 17.9% | fractional alpha helical composition ([3]; CONTIN (SMP180), [LMM] 10 µM): 8.2% | fractional alpha helical composition ([3]; K2D, [LMM] 2 µM): 19% | fractional alpha helical composition ([3]; K2D, [LMM] 10 µM): 22% | CD maximum wavelength ([3]; LMM 2 µM): 193-194 nm | CD maximum wavelength ([3]; LMM 10 µM (higher concentration)): 197-198 nm | 222/208 ratio ([3]; [LMM] 2 µM (low)): 1.08 | 222/208 ratio ([3]; [LMM] 10 µM (high)): 1.17 | helicity, range over methods ([3]; high concentration): 15.3 to 28.7% | α helical content, range over methods ([3]; higher LMM concentration (10 µM)): 8.2–28.7% | helicity, range over methods ([3]; low concentration): 14.2 to 28.5% | α helical content, range over methods ([3]; lower LMM concentration (2 µM)): 8–28.5%
